According to the supplement of paper PMC9732359:
± gives the uncertainty stated by the source.

Test: protein stability index of a GFP-peptide fusion (yeast GPS) (PSI 1-4); higher = more stable; sorted into four equal gates, so the index is relative within each strain
Method in brief: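 Plasmids isolated from each sorting gate were PCR-amplified and Illumina-sequenced, and barcodes assigned the reads to strains. The gates, four of equal size, were set by GFP/Cherry fluorescence ratio on mid-log cultures in leucine-free medium. These cultures were yeast carrying a pooled library of tiled 17-residue yeast protein peptides fused downstream of GFP on a plasmid that also expresses Cherry. The protein stability index is the sum of every gate's read frequency times its gate number.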

Sequence	protein stability index (doa10∆)	protein stability index (pdr5∆)	protein stability index (san1∆)	protein stability index (ubr1∆)
LVSRGGCGNTQPTIRKD [RPO21]	2.96 ± 0.07	2.74 ± 0.11	2.83 ± 0.043	2.9 ± 0.043
TQHEEEEEQDTGESEES [IRR1]		3.29 ± 0.1	3.26 ± 0.092	3.39 ± 0.15
PTLFDLAFNYITYDKQE [SRP68]	2.39 ± 0.064	1.72 ± 0.064	1.77 ± 0.081	1.54 ± 0.059
LRNLHMKRMVAQWERSK [SNF12]	2.88 ± 0.076	2.89 ± 0.1	2.89 ± 0.067	2.88 ± 0.086
KLAAIVEIIDQKKVLID [RPL14A]	2.8 ± 0.18	2.69 ± 0.088	2.91 ± 0.072	2.73 ± 0.062
PQWKRHLEEYGYLIQVL [YCS4]	2.27 ± 0.052	2.73 ± 0.057	2.02 ± 0.095	2.5 ± 0.047
TRISSQFEKSRKVSGPR [RET1]	2.94 ± 0.27	2.92 ± 0.18	2.92 ± 0.098	2.75 ± 0.2
YATKLSKFTKIPPTFDK [MED4]	3.08 ± 0.089	3.28 ± 0.084	3.29 ± 0.08	2.87 ± 0.14
FGKTTANLPANSSTSPA [YLR335W/NUP2]	3.01 ± 0.047	3.14 ± 0.058	2.96 ± 0.045	3.12 ± 0.035
LKQEGAANKTVVVVGTV [RPL18A]	2.94 ± 0.27	3.31 ± 0.11	2.51 ± 0.11	3.46 ± 0.12
QQDQPEQSEQPEQHQDK [RPN10]	3.04 ± 0.059	3.14 ± 0.054	2.83 ± 0.048	3.13 ± 0.058
ELEEQESESERKYDLFQ [SMC2]	3.32 ± 0.16	3.28 ± 0.11	3.31 ± 0.068	3.29 ± 0.094
PASKHDKEVVYFDEWTI [RPC34]	3.27 ± 0.081	3.43 ± 0.065	3.04 ± 0.056	3.12 ± 0.082
ENNYKKRLLGTAFKSSP [RPS23A]	2.32 ± 0.047	2.6 ± 0.049	2.22 ± 0.062	2.44 ± 0.036
VSKKVDVRRLKKNVWRS [BRN1]	2.54 ± 0.22	1.33 ± 0.13		3.13 ± 0.13
STAFVPTIEYVQCPTVI [ARP9]	1.68 ± 0.065	1.97 ± 0.048	1.71 ± 0.08	1.88 ± 0.052
EIKVGKQRFQGCNNLIK [ARP9]	2.76 ± 0.16	3.06 ± 0.13	3.39 ± 0.092	3.34 ± 0.12
NVVEADLKRFVDESLLS [QCR2]	3.14 ± 0.1	3.43 ± 0.1	3.26 ± 0.055	3.46 ± 0.051
VGSPLTVSILQESSSLR [POP8]	3.21 ± 0.078	3.01 ± 0.057	3.01 ± 0.063	3.1 ± 0.042
HNSHLSLNYKFTTNKSK [SRP21]	2.46 ± 0.073	2.07 ± 0.052	2.38 ± 0.076	2.41 ± 0.05
VYFGDENKVMLPRCSKE [RRI2]	3.24 ± 0.091	3.37 ± 0.089	3.11 ± 0.074	3.13 ± 0.063
VSNSISRLGEENLPGLS [SNU114]	1.14 ± 0.12	1.27 ± 0.15	1.07 ± 0.15	1.07 ± 0.12
ANVLDPSLRKLIESGIG [BRR2]	1.87 ± 0.064	2.38 ± 0.071	2.47 ± 0.095	2.56 ± 0.045
VYEYVIASTLGPSAMRL [RPC82]	2.38 ± 0.21		1.6 ± 0.14	1.23 ± 0.097
FTLKQWNRLTISVTDTE [COR1]	1.32 ± 0.049	1.22 ± 0.04	1.14 ± 0.072	1.12 ± 0.047
TRALQISMNAPVFVDLE [RPO26]				3 ± 0.19
PLNDGFVDLVEHFLKLN [YML103C/NUP188]	1.84 ± 0.28	1.63 ± 0.12		2.53 ± 0.13

Sequence	protein stability index (doa10∆)	protein stability index (pdr5∆)	protein stability index (san1∆)	protein stability index (ubr1∆)
GQRPDRATTYEKLTMVF [SIN4]	1.27 ± 0.087	1.48 ± 0.067	1.53 ± 0.19	1.14 ± 0.11
NLNRAFNGDQVIVELLP [DIS3]	3.17 ± 0.11	2.92 ± 0.18		3.45 ± 0.15
AFNQVEIRPEMLGHYLG [RPS15]	2.92 ± 0.12	3.09 ± 0.19	3.44 ± 0.12	3.19 ± 0.15
TKEKVNGASVPINLHPS [RPL26A]	2.54 ± 0.067	2.73 ± 0.078	2.92 ± 0.07	2.93 ± 0.064
LDKLNCAINSKSRGSDL [RRP6]	2.81 ± 0.049	2.93 ± 0.042	2.79 ± 0.042	2.94 ± 0.032
LDVTKEAQANLLTAKHG [RPO21]	3.23 ± 0.17	3.46 ± 0.18	2.8 ± 0.19	3.18 ± 0.19
ALYPQEARLRNLTYSSG [RPB2]	2.39 ± 0.093	2.73 ± 0.1	2.75 ± 0.085	2.49 ± 0.089
RDALRNIKNTNEEATPI [RRP6]	2.76 ± 0.07	2.99 ± 0.081	2.86 ± 0.06	2.94 ± 0.064
EKGKKVTGFKDEVLETV [RPS1A]	1.32 ± 0.13	1.31 ± 0.1		1.37 ± 0.1
VVLGVEKRATSPLLESD [PUP2]	2.98 ± 0.16	2.84 ± 0.13	3.15 ± 0.13	2.84 ± 0.11
HDSSNGLFQVLHNFESV [NUT1]	3.16 ± 0.064	3.15 ± 0.064	2.79 ± 0.07	3.242 ± 0.031
EESIKIYPLIKPGSTVM [UBP6]	2.94 ± 0.18	3.01 ± 0.093		2.96 ± 0.17
NVTIAQGGVLPNIHQNL [HTA1]	1.65 ± 0.05	1.48 ± 0.043	1.36 ± 0.066	1.46 ± 0.034
LRRLEILVPDLYHLVIM [ECM29]	1.59 ± 0.054	1.54 ± 0.036	1.46 ± 0.065	1.61 ± 0.032
VKIRATGGTRTKTPGPG [RPS14A]	3.21 ± 0.25	3.08 ± 0.16	2.72 ± 0.14	3.33 ± 0.21
LSESPVDFEKFETFLVD [SIN4]	3.03 ± 0.12	2.73 ± 0.21		2.76 ± 0.21
GYQWGEENKDIMNVLSE [PRP8]	2.8 ± 0.22			3.16 ± 0.24
EQTVSAVTEATSTNGDS [RGR1]	3.45 ± 0.16	3.29 ± 0.077	3.28 ± 0.083	3.43 ± 0.12
FSWGRPADSTYGAYNTQ [PRE4]	2.75 ± 0.081	2.68 ± 0.064	2.94 ± 0.059	3.04 ± 0.047
MQANKLDSQETPSTEES [SWI3]	1.79 ± 0.096	2.35 ± 0.073	2.39 ± 0.11	2.36 ± 0.056
QMEDMEESINEFKSIEI [SMC4]	3.28 ± 0.13	3.4 ± 0.11	3.27 ± 0.049	2.93 ± 0.085
TSLSSKDLSNYRKTEGI [YMR153W/NUP53]	3.12 ± 0.088	3.25 ± 0.085	3.24 ± 0.062	3.35 ± 0.043
SFEETVEILFEAGASAE [RPO21]	2.7 ± 0.11	2.77 ± 0.09	2.89 ± 0.063	2.51 ± 0.093
KEFDETIFNLPKNKLVP [FAS1]	3.5 ± 0.17	3.39 ± 0.18	3.59 ± 0.085	3.07 ± 0.2
SKQDLIHSLIPVAKWFV [SIN4]	2.4 ± 0.076	2.99 ± 0.054	2.9 ± 0.061	2.78 ± 0.08
YLIVAGVDPTGSHLFSI [PUP1]	1.84 ± 0.081	2.24 ± 0.085	1.94 ± 0.14	2.09 ± 0.068
